Laboratory results from US20230190951A1, “CONJUGATES OF ANTIBODIES AN IMMUNE CELL ENGAGERS” (SYNAFFIX B.V., priority 2020, published 2023).

Key:
[1] = single-arm trial, all patients treated; cited from earlier work
[2] = cited from earlier work
[3] = target: FcRn receptor (Homo sapiens, UniProt P55899); assay: FcRn binding analysis by Biacore (steady state); settings: pH 6.0, PBS with 0.05% tween-20
Description: Binding to the FcRn receptor was determined at pH 7.4 and pH 6.0 using a Biacore T200 (serial no. 1909913) using single-cycle kinetics and running Biacore T200 Evaluation Software V 2.0.1. A CM5 chip was coupled with FcRn in sodium acetate pH 5.5 using standard amine chemistry. Serial dilution of bispecifics and controls were measured in PBS pH 7.4 with 0.05% tween-20 (9 points; 2-fold dilution series; 8000 nM Top conc.) and in PBS pH 6.0 with 0.05% tween-20 (3 points; 2-fold dilution series; 4000 nM Top conc.). A flow rate of 30 µl/min was used and an association time of 40 seconds and dissociation time of 75 seconds. Steady state analysis was used to analyze samples.

[4] = target: T1, CD3 (Homo sapiens, UniProt P07766); assay: CD3 binding analysis by FACS on CD3-positive Jurkat E6.1 cells; settings: for median fluorescence intensity: Jurkat E6.1 (CD3-positive), median of duplicate
T1 construct: Jurkat E6.1 cells, which express CD3 on the cell surface; endogenous in cells; host or cells: Jurkat E6.1
Description: (§1) Both cell lines were cultured in RPMI 1640 supplemented with 1% pen/strep and 10% fetal bovine serum at a concentration of 2 x 10^5 to 1 x 10^6 cells/ml. Cells were washed in fresh medium before the experiment and 100,000 cells per well were seeded in a 96-wells plate (duplicate wells). The dilution series of 6 antibodies were made in phosphate-buffered saline (PBS). The antibodies were diluted 10 times in the cell suspension and incubated at 4° C. in the dark for 30 minutes. After incubation, the cells were washed twice in cold PBS / 0.5% BSA, and incubated with anti-HIS-PE (only for 200) or anti-IgG1-PE (for all other compounds) at 4° C., in the dark for 30 minutes. After the second incubation step, the cells were washed twice. 7AAD was added as a live-dead staining. Detection of the fluorescence in the Yellow-B channel (anti-IgG1-PE and anti-HIS-PE) and the Red-B channel (7AAD) was done with the Guava 5HT flow cytometer. Median fluorescence intensity in the Yellow-B channel (anti-IgG1-PE and anti-HIS-PE) in life cells was determined with Kaluza software.

[5] = test system: MOLT-4 cells; assay: CD3 binding analysis by FACS on CD3 negative MOLT-4 cells; settings: MOLT-4 (CD3 negative)
Description: as §1

T1 sequence (P07766 23-207): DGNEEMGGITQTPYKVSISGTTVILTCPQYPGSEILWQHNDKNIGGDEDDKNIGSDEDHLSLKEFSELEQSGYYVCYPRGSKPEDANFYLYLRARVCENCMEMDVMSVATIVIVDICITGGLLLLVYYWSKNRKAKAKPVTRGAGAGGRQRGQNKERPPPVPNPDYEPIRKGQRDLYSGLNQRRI
T1 sequence (P04234 22-171 partner): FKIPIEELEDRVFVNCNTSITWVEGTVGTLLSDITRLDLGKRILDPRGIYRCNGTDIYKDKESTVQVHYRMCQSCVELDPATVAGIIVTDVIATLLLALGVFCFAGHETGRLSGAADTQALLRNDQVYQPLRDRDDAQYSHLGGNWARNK
T1 sequence (P09693 23-182 partner): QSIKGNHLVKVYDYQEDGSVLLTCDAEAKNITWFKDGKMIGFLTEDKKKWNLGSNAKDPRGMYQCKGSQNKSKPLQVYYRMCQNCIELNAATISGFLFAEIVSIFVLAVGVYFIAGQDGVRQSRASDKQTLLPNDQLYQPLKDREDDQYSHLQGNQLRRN
T1 sequence (P20963 22-164 partner): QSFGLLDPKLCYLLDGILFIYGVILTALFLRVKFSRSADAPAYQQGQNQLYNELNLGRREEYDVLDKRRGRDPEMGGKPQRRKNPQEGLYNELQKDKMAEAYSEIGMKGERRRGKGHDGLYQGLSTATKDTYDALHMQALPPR

Row | RMAX (RU) [3] [RU] | median fluorescence intensity ([4]; 0.32 nM) | median fluorescence intensity ([4]; 1 nM) | median fluorescence intensity ([4]; 3.16 nM) | median fluorescence intensity ([4]; 10 nM) | median fluorescence intensity ([4]; 31.6 nM) | median fluorescence intensity ([4]; 100 nM) | median fluorescence intensity ([4]; 316 nM) | median fluorescence intensity ([4]; 1000 nM) | binding to the CD3 positive Jurkat E6.1 cell line ([4]; Jurkat E6.1, result in words) | Substance | complete remission rate [1] [%] | minimal residual disease (MRD) response [1] [%] | serum half-life [2] [h] | median fluorescence intensity ([5]; 1 nM) | median fluorescence intensity ([5]; 10 nM) | median fluorescence intensity ([5]; 100 nM) | median fluorescence intensity ([5]; 1000 nM)
1 |  |  |  |  |  |  |  |  |  |  | blinatumomab | 32 | 31 | 2.11 |  |  |  | 
2 | 96.4 | 58.28 | 56.55 | 55.37 | 60.83 | 58.71 | 55.49 | 54.99 | 66.36 | not | rituximab |  |  |  | 78.96 | 75.92 | 68.42 | 67.39
